The test system of series [1] is internally quenched peptide probe with CM 7041 (PWGL, SEQ ID NO: 100).
In series [2] the test system is internally quenched peptide probe with CM 7054 (PKGL, SEQ ID NO: 108).
Series [3] has as its system internally quenched peptide probe with CM 7053 (PQGL, SEQ ID NO: 9).
The subject of series [4] is internally quenched peptide probe with CM PMGLKS (SEQ ID NO: 5).
Series [5] has as its system internally quenched peptide probe with CM 7047 (PYGL, SEQ ID NO: 103).
The subject of series [6] is internally quenched peptide probe with CM APMGLKH (SEQ ID NO: 7).
Series [7] has as its system internally quenched peptide probe with CM 7051 (PMGL, SEQ ID NO: 106).
In series [8] the test system is internally quenched peptide probe with CM 7050 (PRGL, SEQ ID NO: 105).
In series [9] the test system is internally quenched peptide probe with CM RSPWGL (SEQ ID NO: 182).
Series [10] has as its system internally quenched peptide probe with CM 7049 (PFGL, SEQ ID NO: 104).
Series [11] has as its system internally quenched peptide probe with CM 7052 (PLGL, SEQ ID NO: 107).
For series [12], the system named is internally quenched peptide probe with CM 7056 (PEGL, SEQ ID NO: 11).
Series [13] concerns internally quenched peptide probe with CM 7055 (PHGL, SEQ ID NO: 10).
The subject of series [14] is internally quenched peptide probe with CM PWGLRS (SEQ ID NO: 181).
For series [15], the system named is internally quenched peptide probe with CM PMGLK (SEQ ID NO: 64).

Sequence of human recombinant MMP9 (R&D Systems, catalog No: 911-MP) (chain, as listed by the source): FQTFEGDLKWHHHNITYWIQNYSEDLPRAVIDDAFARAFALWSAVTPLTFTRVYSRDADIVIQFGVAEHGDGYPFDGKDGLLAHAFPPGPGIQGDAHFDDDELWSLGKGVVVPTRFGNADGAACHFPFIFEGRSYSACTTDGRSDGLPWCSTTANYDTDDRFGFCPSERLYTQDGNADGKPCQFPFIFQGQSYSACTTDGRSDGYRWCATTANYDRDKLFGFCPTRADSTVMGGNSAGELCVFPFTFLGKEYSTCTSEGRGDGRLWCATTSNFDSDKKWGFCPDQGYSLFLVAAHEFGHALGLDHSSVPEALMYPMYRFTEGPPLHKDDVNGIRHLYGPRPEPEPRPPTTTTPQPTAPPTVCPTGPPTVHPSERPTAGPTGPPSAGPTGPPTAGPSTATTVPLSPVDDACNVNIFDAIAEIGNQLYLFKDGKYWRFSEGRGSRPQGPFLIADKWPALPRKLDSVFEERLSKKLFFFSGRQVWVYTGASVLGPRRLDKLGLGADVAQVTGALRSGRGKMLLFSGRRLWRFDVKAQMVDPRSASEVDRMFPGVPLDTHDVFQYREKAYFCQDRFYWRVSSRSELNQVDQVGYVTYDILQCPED

With “human recombinant MMP9 (R&D Systems, catalog No: 911-MP)”, the “stated: cleaved (kcat/Km, M-1s-1, bar on a log axis)” value in [1] is “PWGL, MMP9 bar ends just above the 1x10^4 tick”; in series [2], “PKGL, MMP9 bar ends just above the 1x10^4 tick”; in series [3] it was “PQGL, MMP9 bar ends between 1x10^3 and 1x10^4”; in series [5] it was “PYGL, MMP9 bar ends at about the 1x10^4 tick”; in series [7] it was “PMGL, MMP9 bar ends between 1x10^3 and 1x10^4, close under 1x10^4”; in series [8] it was “PRGL, MMP9 bar ends between 1x10^4 and 1x10^5”. Besides, the “stated: cleaved (kcat/Km, M-1s-1, bar on a log axis)” value is “PFGL, MMP9 bar ends at about the 1x10^4 tick” in series [10]; “PLGL, MMP9 bar ends between 1x10^4 and 1x10^5” in series [11]; “PEGL, MMP9 bar ends between 1x10^2 and 1x10^3, just under the 1x10^3 tick” in series [12]; “PHGL, MMP9 bar ends between 1x10^3 and 1x10^4” in [13]. Further, the Probe Cleavage (kcat/KM) in series [4] turned out to be 3.1e+06 M⁻¹ s⁻¹; in [6], 2.8e+06 M⁻¹ s⁻¹; in series [9] it was 870000 M⁻¹ s⁻¹; in [14], 150000 M⁻¹ s⁻¹; in [15], 140000 M⁻¹ s⁻¹. Also, the Probe Cleavage (pM/s) in series [4] stood at 133000 pM/s; in [6] it was 115000 pM/s; in [9] it was 25500 pM/s; in series [14], 3830 pM/s; in series [15], 6080 pM/s. The “kcat/KM (M^-1 s^-1)” value in series [5], in series [10] and in series [12] was “greater than 5×10^2 M^-1 s^-1” in each case.

The values above are taken from patent publication US20260042849.
